The supplement of paper PMC10201428
± gives the standard deviation of the averaged measurements.

Assays:
[1] = system: VchCAST RNA-guided transposition machinery (E. coli BL21(DE3) host, lacZ target); experiment: relative integration efficiency (T-LR orientation) vs wild-type transposon end (log2 (normalized fold change)); transposon end mutated: right end (5 bp flank + 75 bp right end); higher = more efficient transposition
Summary of the method: (§1)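 Relative integration efficiency is a fold change of output over input barcode abundance, normalised to reference barcodes and log-transformed. Input plasmids and genomic integration junctions were PCR-amplified and Illumina-sequenced from E. coli BL21(DE3) co-transformed with a T7-driven effector plasmid and pUC57 donor pools of 1549 left-end or 1849 right-end transposon variants. Plating was done with 0.1 mM IPTG at 37°C for 18 h, with two biological output replicates and four reference barcodes.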

[2] = system: VchCAST RNA-guided transposition machinery (E. coli BL21(DE3) host, lacZ target); experiment: relative integration efficiency (T-RL orientation) vs wild-type transposon end (log2 (normalized fold change)); transposon end mutated: right end (5 bp flank + 75 bp right end); higher = more efficient transposition
Summary of the method: as §1

Row | Sequence | relative integration efficiency (log2) [1] | relative integration efficiency (log2) [2]
1 | ACATTTGTTGATACACCCATAAATTGATATTGCCAACCATAAAGTGATATTTATCACACCCATAAATTGATAATTACTCTGATCATAGTCAGACCAACATTGCTACGACCCGTATTCGCACCGACAC | -0.215 ± 0.15 | -0.649 ± 0.14
2 | ACATTTGTTGACAACCATAAAATGATAATTACACCCATAAATTGATAATTATCACACCCATAAATTGATATTGCCTCTGATCATAGTCAGACCAACATTGCTACGACCCGTATTCGCACCGACACTG | -6.81 ± 1.7 | -7.09 ± 0.12
3 | ACATTTGTTGATACAACCATAAAATGATAAATACACCCATAAATTGATAATTGTGACACCGAATTTAACTATAACGCTCTGATCATAGTCAGACCAACATTGCTACGACCCGTATTCGCACCGACAC | 2.56 ± 0.14 | -0.896 ± 0.3
4 | TATAATGTTGATACAACCATAAAATGATAATTACACCCATAAATTGATAATTATCACACCCATAAATTGATATTGCCTCTGATCATAGTCAGACCAACATTGCTACGACCCGTATTCGCACCGACAC | -0.134 ± 0.48 | -0.277 ± 0.026
5 | ACATTTGTAAAAAAAACCATACGTTGATTTTACGAAACCATACGCTGAAATAAAAACAACCATACCTTGAAATTGCTTATAAAGTGTACAACACTTGAGAAAGTTTACTACAGGTATGCACCGACAC | < -10 | -7.441 ± 0.019
6 | ACATTTGTTGATACACCCATAAATTGATAATTACAACCATATATTGATATCTCTCACACCCATAAATTGATAATTACTCTGATCATAGTCAGACCAACATTGCTACGACCCGTATTCGCACCGACAC | 0.157 ± 0.34 | -0.753 ± 0.22
7 | ACATTTGTAAAAACAACCATAAAATGATAATTACACCCATAAATTGATAATTATCACACCCATAAATTGATATTGCCTCTGATCATAGTCAGACCAACATTGCTACGACCCGTATTCGCACCGACAC | -0.286 ± 0.49 | 0.25 ± 0.023
8 | ACATTTGTTGATACAACCATAAAATGATAATTACACCCAGCCCGGTCGCCGGCGACACAAACGCCCGGTCGCGGTAAGAGGATCATAGTCAGACCAACATTGCTACGACCCGTATTCGCACCGACAC | 1.03 ± 0.08 | -1.97 ± 0.16
9 | ACATTTGTTGATACAACCATAAAATGATAATTACACCCATAAATTGATAATGCTCACACCCATAAATTGATATTGCCTCTGATCATAGTCAGACCAACATTGCTACGACCCGTATTCGCACCGACAC | 0.654 ± 0.025 | -0.488 ± 0.1
10 | ACATTTGTTGATACAACCATAAAATGATAATTACACCCATAAATTGATAATTATCACACCCATAAATTGATATTGCCTCTAAAGTGTACAACACTTGAGAAAGTTTACTACAGGTATGCACCGACAC | 0.483 ± 0.017 | -0.293 ± 0.28
11 | ACATTTGTTGATACAACCATAAAATGATAATTACACCCAGCAATTGATAATTATCACACCCATAAATTGATATTGCCTCTGATCATAGTCAGACCAACATTGCTACGACCCGTATTCGCACCGACAC | -2.55 ± 0.22 | -2.18 ± 0.085
12 | ACATTTGTTGATACAACCATAAAATGATAATTACAACCATAAAATGATAATTATCACAACCATAAGTTGATATTTTCTCTGATCATAGTCAGACCAACATTGCTACGACCCGTATTCGCACCGACAC | -0.17 ± 0.32 | -0.0104 ± 0.27
13 | ACATTTGTTGATACAACCATTAAATGATAATTACACCCAAAAATTGATAATTATCACACCCAATTTAACTATAACGCTCTGATCATAGTCAGACCAACATTGCTACGACCCGTATTCGCACCGACAC | 2.03 ± 0.09 | -0.982 ± 0.24
14 | ACATTTGTTGATACAACCATAAAATGATAATTACTGGGATAAATTGATAATTATCACACCCATAAATTGATATTGCCTCTGATCATAGTCAGACCAACATTGCTACGACCCGTATTCGCACCGACAC | -0.993 ± 0.59 | -0.454 ± 0.059
15 | ACATTTGTTGATACAACCATAAAGTGATATTTACACCCATAAATTGATAATTATCACAACCATAAAGTGATATTTACTCTGATCATAGTCAGACCAACATTGCTACGACCCGTATTCGCACCGACAC | -0.0182 ± 0.15 | -0.155 ± 0.041
16 | ACATTTGTTGATACAACCATAAAATGATAATTAATAATCACCCATAAATTGATAATTATCAACAAACGCCCGGTCGCGGTACTCTGATCATAGTCAGACCAACATTGCTACGACCCGTATTCGCACC | 0.619 ± 0.018 | -2.77 ± 0.31
17 | ACATTTGTTGATACAACCATTAAATGATAATTACACCCATAAATTGATAATGATGACACCGAATTTAACTATAACGCTCTGATCATAGTCAGACCAACATTGCTACGACCCGTATTCGCACCGACAC | 1.9 ± 0.16 | -1.3 ± 0.18
18 | ACATTTGTTGATACCACCATAAAATGATAATTACACCCATACATTGATAATTATCACACCCAATTTAACTATAACGCTCTGATCATAGTCAGACCAACATTGCTACGACCCGTATTCGCACCGACAC | 0.947 ± 0.23 | -2.1 ± 0.38

Row | Sequence | relative integration efficiency (log2) [1] | relative integration efficiency (log2) [2]
19 | ACATTTGTTGATACAACCATAAAATGATAATTACACCCATAAATTGATAATTATCTGACCCATAAATTGATATTGCCTCTGATCATAGTCAGACCAACATTGCTACGACCCGTATTCGCACCGACAC | 0.513 ± 0.03 | -0.393 ± 0.12
20 | ACATTTGTTGATACAACCATAAAATGATAATTACACCCATAAATTGATAATTATCACACCCATAAATTGATATTGCCTCTCAGACCACATAGCTGCCATGTCCTGATCGGACGGACCGCACCGACAC | 0.624 ± 0.19 | 0.787 ± 0.22
21 | ACATTTGTTGATACAACCATAAAATGATAATTAACACCCATAAATTGATAATTATCACACCCATAAATTGATATTGCCTCTGATCATAGTCAGACCAACATTGCTACGACCCGTATTCGCACCGACA | -0.437 ± 0.21 | -0.572 ± 0.11
22 | ACATTTGTCGATACAACCATAAAACGATAATTACACCCATAAATTGATCATTATCACACCCAATTTAACTATAACGCTCTGATCATAGTCAGACCAACATTGCTACGACCCGTATTCGCACCGACAC | 1.9 ± 0.036 | -1.88 ± 0.3
23 | ACATTTGTTGATACACCCATAAATTGATAATTACAACCATAAAATGATAATTATCAGTGGGTATTTAACTATAACGCTCTGATCATAGTCAGACCAACATTGCTACGACCCGTATTCGCACCGACAC | 2.58 ± 0.045 | -0.217 ± 0.012
24 | ACATTTGTTGATAGAACCATATAATGATAATAACACCCATAAAATGATAATTATCACACCCAATTTAACTATAACGCTCTGATCATAGTCAGACCAACATTGCTACGACCCGTATTCGCACCGACAC | 1.28 ± 0.069 | -1.72 ± 0.33
25 | ACATTTGTGGATACAACCATAAAATGATAATTACACCCATAAATTGATAATTATCACCCCCAATTTAACTATAACGCTCTGATCATAGTCAGACCAACATTGCTACGACCCGTATTCGCACCGACAC | 2.44 ± 0.065 | -0.606 ± 0.13
26 | ACATTTGTTGATACAACCATTAAATGATAATTCCACCCCTAAATTGATAATTATCACACCCAATTTAACTATAACGCTCTGATCATAGTCAGACCAACATTGCTACGACCCGTATTCGCACCGACAC | 0.256 ± 0.39 | -2.75 ± 0.27
27 | ACATTTGTTGATACAACCATAAAATGATAATTACACCCATAAATTGATAATTATCACACCCATAAATTGATATTGCCTCTGATCATCAACCATAAAATGATAATTAAGTCAGACCAAGCACCGACAC | 0.201 ± 0.068 | 0.146 ± 0.35
28 | ACATTTGTTGATACAACCATAAAATGATAATGCCACCCATAAATTGATAATTATCACACCCATAAATTGATATTGCCTCTGATCATAGTCAGACCAACATTGCTACGACCCGTATTCGCACCGACAC | -0.173 ± 0.33 | -0.625 ± 0.1
29 | ACATTTGTTGATACAACCATAAAATGATAATTAATAATTATTTATAATCAGCAACACCCATAAATTGATAATTATCAACAAACGCCCGGTCGCGGTACTCTGATCATAGTCAGACCAACATTGCTAC | 0.0215 ± 0.36 | -3.18 ± 0.077
30 | ACATTTGTGGATACAACCCTAAAATGATAATTACACCCATAAATTGATCATTATCACCCCCAATTTAACTATAACGCTCTGATCATAGTCAGACCAACATTGCTACGACCCGTATTCGCACCGACAC | 0.316 ± 0.5 | -2.87 ± 0.27
31 | ACATTTGTTGATACACCCATAAATTGATAATTACAACCATATATTGATATCTCTCACAACCATAAGTTGATATTTTCTCTGATCATAGTCAGACCAACATTGCTACGACCCGTATTCGCACCGACAC | 0.798 ± 0.25 | 0.516 ± 0.26
32 | ACATTTGTTGATACAACCATAAGTTGATATTTTCACCCATAAATTGATAATTATCACAACCATAAAGTGATATTTACTCTGATCATAGTCAGACCAACATTGCTACGACCCGTATTCGCACCGACAC | -0.211 ± 0.3 | -0.345 ± 0.068
33 | ACATTTGTTGATACACCCATAAATTGATATTGCCACCCATAAATTGATATTGCTCACAACCATATATTGATATCTCCTCTGATCATAGTCAGACCAACATTGCTACGACCCGTATTCGCACCGACAC | 0.239 ± 0.14 | -1.05 ± 0.22
34 | CAAAATGTAAAAAAAACCATACGTTGATTTTACCACCCATAAATTGATAATTAAAACAACCATACCTTGAAATTGCTTATAAAGTGTACAACACTTGAGAAAGTTTACTACAGGTATGCACCGACAC | -2.89 ± 0.71 | -4.977 ± 0.011
35 | ACATTTGTTTATACAACCATAAAATGATAATTACACCCATAAATGGATTATTATCACACCCAATTTAACTATAACGCTCTGATCATAGTCAGACCAACATTGCTACGACCCGTATTCGCACCGACAC | -1.01 ± 0.12 | -2.39 ± 0.61
